Measurements as given in US20090311265A1.

Biological target: HA of BPL-inactivated virus preparation of strain A/New Caledonia/20/99 (H1N1) (influenza A virus A/New Caledonia/20/99 (H1N1))
Test: ELISA, coated inactivated virus, IgG 5 µg/ml

B1: CR6329 (antibody, V domains shown)
VH: EVQLVQSGAEVKKPGSSVKVSCKASGGIFRSNSISWVRQAPGQGLEWMGGIFALFGTTDYAQKFQGRVTITADESSTTVYLELSSLTSEDTAVYYCARGSGYTTRNYFDYWGQGTLVTVSS
VL: EIVLTQSPGTLSLSPGERATLSCRASQSVSSNYLGWYQQKPGQAPRLLIYGASSRASGIPDRFSGGGSGTDFTLTISRLEPEDFAVYYCQQYGSSPLTFGGGTKVEIKR
B1 gave an OD 492 nm of 1.04 OD 492 nm.
